The target of test [1] is T1, biotinylated avi-tagged canine PD-1 soluble protein (canine, biotin).
T1 chain: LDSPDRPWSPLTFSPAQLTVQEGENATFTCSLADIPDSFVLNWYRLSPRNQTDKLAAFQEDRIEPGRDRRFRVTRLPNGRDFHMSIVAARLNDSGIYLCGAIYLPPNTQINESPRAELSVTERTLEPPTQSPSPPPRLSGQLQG
Description: ELISA.

Test [2] has as its target canine PD-1 expressed on the surface of KTδ32 cells (Canis lupus familiaris, UniProt A0A090BAM7). Description: flow cytometry on cells.
The target of test [3] is recombinant canine PD-1 protein, His tag (Canis lupus familiaris, UniProt A0A090BAM7). Description: SPR.

Changes are numbered by the printed parent chain.

B1: P3C6 soluble scFv (scFv, V domains shown)
VH: EVQLVQSGGDLVKPGGSLRLSCMASGFTFSKYGMSWVRQSPGKGLQWVADIAANGGTYYTDAVKGRFTISRDNAKNALYLQMDDLRAEDTAVYYCARWGGAPFDYWGQGTLVTVSS
VL: EIVMTQSPASLSLSQEEKVTITCRASQSVSSYLAWYQQKPGQAPKLLIYGTSNRATGVPSRFSGSGSGTDFSFTISSLEPEDVAVYYCQQGLQYPITFGKGTHLEIK
Consider B1, for which the binding result in test [1] and in test [2] was “binds” in each case.

B2: P3C6mut3.2 full-length canine IgGD (antibody, V domains shown)
VH: B1 VH with L11V, M23V, A77T, D83N, D84S
VL: B1 VL
With B2, in test [2], the binding result is reported as “binds”.

B3: P3C6mut3.1 full-length canine IgGD (antibody, V domains shown)
VH: B1 VH with L11V, A77T, D83N, D84S
VL: B1 VL
Take B3: in test [3], the binding half-life was determined as 81 min, the koff stood at 0.000143 s⁻¹ and the kon stood at 131000 M⁻¹ s⁻¹.

B4: P4B1 soluble scFv (scFv, V domains shown)
VH: EVQLVQSGGDVVKPGGSLRLSCVASGFTFNTYGMNWVRQSPGKGLQWVAAIANSGSTYYADAVRGRFTISRDNAKNTLYLQMNSLRAEDAAIYYCASGIWGDWFYYWGQGTLVTVSS
VL: SSVLTQPPSVSVSLGQTATISCSGESLTKYYAQWFQQKPGQAPMLVIYKDTERPSGIPDRFSGSSSGNTHTLTISGARAEDEADYYCESAVSADAVVFGGGTHLTVL
Take B4: the binding result in test [1] was “binds”.

Values taken from article PMC10793675 (mAbs, 2023).
